# Experimental data: the DeepSol protein solubility set
# Test: soluble on expression in E. coli; label from the status in PepcDB or PDB records
row,Sequence,soluble on expression in E. coli
1,MSLKVPGIRNYDGPAGGWGALKATATAVREQMDTLKAPLTLMRTNQPDGFDCPGCAWPDKEHKSTFQFCENGAKAVTWEATNKRVTPAFFAQHPVTSLLQRSDYELEDLGRLTEPLVYDRASDTFKPVAWQDAFARIGEILRSLQPEQVEFYTSGRASNEAAYLYQLFAREYGCNNFPDCSNMCHEPTSVGLPRSIGIGKGTVSLEDFDLCELIISIGHNPGTNHPRMMGTLHEASRRKVPIMVFNPLRERALERFADPQNMVEMATYGSTRIASSYFQVKAGGDAAAIKGIMKALLALEDSLGQVLDQAFIAEHTQGFEALAADLHATAWADIEQASGLHQADLEMVAAAYAKSNATIVTYGMGITQHNEGTANVRLICDLLMLRGNLGKPGAGICPLRGHSNVQGNRTVGITEKPSPAFLDKLQQTFGFTPPAHHGHDAVQAMQAMIAGSAKALLCLGGNFAVALPDPGQCFPAMGKLDLSVHIATKLNRSHLLVARETFLFPCLGRTELDMQDGLRQAITVEDSMSMVHASAGKLAPASEFLLSEPAIVAGMARATLPGSRVPWLELVADYDKIRDLIEQTVPGFDDYNARIRVPGGFRMPLAAAERQWLTPSGKAEFFVFPGLHEDKEVDGADVLRLITLRSHDQYNTTIYALDDRYRGVFGRRDVLFISPADLAARGLAHGDLVDIETVIGGRRLRYEKITAIEYKIANGTVGAYYPEANRLVPLDYLDVDSGTPSYKSVPVRVLRSSPAEGHHHHHH,soluble
2,MSLKVRLEDVAKRLGVSVATVSRSLAGHPAISSETRGAVRAVASELGYRIPTQGRRGKKSSTKLIGVVVGALHNRFMTLLLTHLHDALQELGYQMTLVIDSMNDSQNLQALRPLIEGYLDGLIFATATLDSPVIAEMQRRAIPLVLVVRSVDDVRVDTVEIDNVHAGAVAAEHLYQLGHRRIGLVMGPQNTSTSRDRAKGALTYLADIGISSEAVTLMWSDYTTEAGYSSAMAIFNEADPVTAIVAGNDTIALGVLEAAARRAIKVPEQLSVIGFDDMPLAGSPLVALTSIRQPVRAMARTAARRLIDRIRAGGMGAPVHDVLPIQLVRRETTGPREGHHHHHH,soluble
3,MSLKVVFVSYEVFPFAKVGGLADVAGTLPKYLKKHGVDVTIVMPKHRIVEKNAEKFGYEIKKVAESLSVSHVKTDQKFDIYESVLPGSDVKTYFVANDYYFSAEDVYAGPDLGEQAIFFCAATLDLVKHLDLKPDIVHVNDWQTALIPVYLKTVYRDDPYFSRTATVLTIHNLGYQGVFDPKYLSFAGLPDYVYTIDGLEFYGQLNFLKGGIVFSDVINTVSPTYAEEIQTEEYGEKLDGVLRMRSKDLYGILNGIDYELYNPATDRYIYVNYDVNRLELKWENKVKLQEELGLPVNKETAVAGLISRLVPQKGLDLLVDVMDYLTLFDLQIVVLGTGDEQYENAFRKFQERYPDKVSANIKFDVELAQKIYAGADIFLMPSRYEPCGLGQMFSMRYGTIPVVRYTGGLADTVKEYDPQSMEGTGFGFKKYDSAHLLKAVSKALHFYYREKDHWRRIMTNAMNTDLSWDRSAKEYVDLYKKALAKVGREGHHHHHH,soluble
4,MSLKYAVLGATGLLGHHAARAIRAAGHDLVLVHRPSSQIQRLAYLEPECRVAEMLDHAGLERALRGLDGVIFSAGYYPSRPRRWQEEVASALGQTNPFYAACLQARVPRILYVGSAYAMPRHPQGLPGHEGLFYDSLPSGKSSYVLCKWALDEQAREQARNGLPVVIGIPGMVLGELDIGPTTGRVITAIGNGEMTHYVAGQRNVIDAAEAGRGLLMALERGRIGERYLLTGHNLEMADLTRRIAELLGQPAPQPMSMAMARALATLGRLRYRVSGQLPLLDETAIEVMAGGQFLDGRKAREELGFFSTTALDDTLLRAIDWFRDNGYFNTEGHHHHHH,soluble
5,MSLKYDVVVIGAGGAGYHGAFRLAKAKYNVLMADPKGELGGNCLYSGCVPSKTVREVIQTAWRLTNIANVKIPLDFSTVQDRKDYVQELRFKQHKRNMSQYETLTFYKGYVKIKDPTHVIVKTDEGKEIEAETRYMIIASGAETAKLRLPGVEYCLTSDDIFGYKTSFRKLPQDMVIIGAGYIGLEIASIFRLMGVQTHIIEMLDRALITLEDQDIVNTLLSILKLNIKFNSPVTEVKKIKDDEYEVIYSTKDGSKKSIFTNSVVLAAGRRPVIPEGAREIGLSISKTGIVVDETMKTNIPNVFATGDANGLAPYYHAAVRMSIAAANNIMANGMPVDYVDVKSIPVTIYTIPSLSYVGILPSKARKMGIEIVEAEYNMEEDVSAQIYGQKEGVLKLIFERGSMRLIGAWMIGVHSQYLINELGLAVAYGLNAKQLASFAEQHPSTNEIISYTARKVIEGHHHHHH,soluble
6,MSLKYEGSISINATKDQILKLLDNPDQVAQCFPGIKSFSKEGEEYKVVGVTGIGFIKGEYRANVRFEKIDDNKRKIIAKGTGMNSNVDIDAIAEALDGKINYSADVKVAGVLASVGARLMGSAVEKIINDLFNCIKERVIKEGHHHHHH,soluble
7,MSLKYLVMNAGRLFLSLLKESGVNKIFIVSGTDYASLIEAKVEDSSLPEFEIVPHEITAISTAIGYALGNKLSAVAVHTTPGTANALGGIMSAFTSRIPLLVIAGRSPYTEKGNTASRNLRIHWTQEARDQGELVRQYVKYDFEIRMADQLPAVVSRAIQIMMSEPRGPVYIVLPREVSIQEVNEARRIPMDYYEPAPSPDKINKAKEMLEKSERPLIITWRAGRRKEWFESLRRFADNYNIPVLNYAGEVLNYPSSGPMALDRFDLRNSDLLLVVEAEVPYFPKKIDLDIPIVKIDVDPSYSYIPYYGFRCDLCIQSTPSNFFDYISIRPKSYDEIKELRAKQEEYKKQEIERLKDKKPIHPKYLSYEIGIVASEYNLVIFNEYQFNPRYARLNEFGSYFADLSVGYLGFALGAGVGYKIATNKDVLITTGDGSFIFGVPEAFYYVASKYPTMVVIYDNGGWLASAEAVDEVFPEGLAKSKKYYPGADFDRRFEIGKTVETFHGYYELVEDPWEIKPALIRGLEKMRRENKIAVIQVIVDKVREGHHHHHH,not soluble
8,MSLKYVDEFRNGDYAKTLVRLIQKLTKKKINIMEICGSHTMAIFRYGIKDILPSNIRLISGPGCPVCVTSQGYIDTALELSLSREVIIATFGDMIRVPGTKTSLMKRKAEGADIKIVYSPMDALTLAENNPLKKVVFLSVGFETTTPITAITILEAKKRGVKNIFFLTSNKMVPPVMRTLVEDKELNITGFLLPGNVSAIIGKKPYEFLSSEYNVSGVVTGFEPLDILKGLKVLIDIINNNASVIVNEYKRVVRDEGNVTALRYIKEVFEVTDSTWRGIGNIEKSGYKINTEYEQFDAVKQFNINYKECDSSSECRCGDILKGKITPIECSLFKKACTPDHPVGSCMVSYEGVCAAYYKFLNTEGHHHHHH,not soluble
9,MSLLFLAMAPKPKPWVQTEGPEKKKGRQAGREEDPFRSTAEALKAIPAEKRIIRVDPTCPLSSNPGTQVYEDYNCTLNQTNIENNNNKFYIIQLLQDSNRFFTCWNRWGRVGEVGQSKINHFTRLEDAKKDFEKKFREKTKNNWAERDHFVSHPGKYTLIEVQAEDEAQEAVVKVDRGPVRTVTKRVQPCSLDPATQKLITNIFSKEMFKNTMALMDLDVKKMPLGKLSKQQIARGFEALEALEEALKGPTDGGQSLEELSSHFYTVIPHNFGHSQPPPINSPELLQAKKDMLLVLADIELAQALQAVSEQEKTVEEVPHPLDRDYQLLKCQLQLLDSGAPEYKVIQTYLEQTGSNHRCPTLQHIWKVNQEGEEDRFQAHSKLGNRKLLWHGTNMAVVAAILTSGLRIMPHSGGRVGKGIYFASENSKSAGYVIGMKCGAHHVGYMFLGEVALGREHHINTDNPSLKSPPPGFDSVIARGHTEPDPTQDTELELDGQQVVVPQGQPVPCPEFSSSTFSQSEYLIYQESQCRLRYLLEVHL,soluble
10,MSLLIETTMTFLCPLCEHPLTLNQNTYACINRHQFDVAKEGYVNLMPVQHKRSKDPGDNKEMTQARRRFLHTGHYAPMREKVATLCQTYLTDRQQTLLDIGCGEGYYTDFFAKALRQQDSEAQIFGLDISKIAIRYAAKRYPECQFAVASSHRLPFANQSLDGVIRIYAPCKDTELERCIKIGGIVITVTPAARHLYQFKQGIYDQVRLHEEQPETLSGFELVEECKLHYPMALNGSEAADLLQMTPFAWRASEDFKHRVSQSDTFECEADFMLRVYRRKEGHHHHHH,soluble
11,MSLLKADGMAKKQTLLVGERLVWDKLTLLGFLEKNHIPQKLYYNLSSQDKELSAEIQSNVTYYTLRDANNTLIQALIPISQDLQIHIYKKGEDYFLDFIPIVFTRKERTLLLSLQTSPYQDIVKATNDPLLANQLMNAYKKSVPFKRLVKNDKIAIVYTRDYRVGQAFGQPTIKMAMVSSRLHQYYLFSHSNGRYYDSKAQEVAGFLLETPVKYTRISSPFSYGRFHPVLKVKRPHYGVDYAAKHGSLIHSASDGRVGFIGVKAGYGKVVEIHLNELRLVYAHMSAFANGLKKGSFVKKGQIIGRVGSTGLSTGPHLHFGVYKNSRPINPLGYIRTAKSKLHGKQREVFLEKAQYSKQKLEELFKTHSFEKNSFYLLEGFEGHHHHHH,soluble
12,MSLLLRMMGWKALVPSANPLQSVICVAPHTSNYDFLLGKLYYWSIGRKAGFLMKKEWFFFPLGPIFRAMGGIPIDRSKRGSTVEQVREFFQRHAVFNVAITPEGTRDYSPQWKTGFYRIAVGAGVPIQLAVIDYSYKEMSVFELFTPTGNEEADIAYIRSRYRASQARHPRNFAESEIEGHHHHHH,soluble
13,MSLLSVKQSSINEDHNNWDFFGHFVLRSTGFPYEWMKELKMQQTFDLIFQNAKWEQVESKFNQELAIKREQLKAYFDSEDFRQAVFISNPDMYQHIDRYMKHFQSHSRPSKVKRIEKKLFTYLQRFCGKNESASFFGPLNYGQVEPNIDEYWDGSFIETKDLQKREAFLSYWAVKALAKAVAKENELAPYVPLQIPSWIVVRKEYVVLSSGKRINLPAWMMEIMHYIQETSSCLWELQNHFNHIEAGQLKASLEKLISKGLIHREWIIPSTVVHPLHRLLEQLRELPDSPAKNKWCQALDELASEVTKLANLPIVEKRRSFAHLEETFTKLTGEPSRRGKASLYADRFIYYEDAQGHIQEFRFGKPFIEDLQTKLAGSLNMSAAYGEEIWAYYQELGRNVYEDMQVEARNDEKRQLANSGIPFSSFINKLRQTYPDVPQLPKSSFSNKIEAIIREKGTEQRVVKLTSDQLNVFPSNRSFYSLPDLFLQAENIEALRNGDVQIILAKLHHHLLMHNWMTYFYQEKERLERDLVQLVQKLDHEDGTVLSGLEIMRRNKAYYDYPTTVIEYAEKPDSSKESIKLTDLIVVRNDDGHLELQEKNTSRPIELYVPLADQVHYLPFAMFSKPMLLHVPISSGKHTPRIVIDDVVYQRERWFFYTKQLVDLFHQLQGPLLLKKVEEWRQAEGIPEVVYIKGSDVRKPYWVDFKNYFSLELMQQILLENNEITIEEMLPDPHHLWLKSRKGSHSCELRMSVYKLGIKEVSEHAEGHHHHHH,soluble
14,MSLMFERSPDDPLPLVYACSGCSNVAQLANDLALRLDRARLAEMSCIAGVGGDVPLLVRRARSGRPILALDGCPLHCVKGCLARHEVVPTLHLTLSEHGLKKRYGEDCEAQDAERLFVELERLLTPGGKRRCEEGHHHHHH,soluble
